According to patent publication US20030236197A1:

Target: Aβ1-40 peptide (monomeric start material of the nucleation assay)
Assay: cell-based or functional assay

Row | Nucleation assay Δ lag at 1.25 µM compound (ratio of lag time to control) | Nucleation assay Δ lag at 2.5 µM compound (ratio of lag time to control) | Nucleation assay Δ lag at 5 µM compound (ratio of lag time to control) | Nucleation assay Δ lag at 0.6 µM compound (row marked #: measured at 2.5, 1.25 and 0.6 µM) (ratio of lag time to control) | Nucleation assay Δ lag at 1.25 µM compound (row marked #: measured at 2.5, 1.25 and 0.6 µM) (ratio of lag time to control) | Nucleation assay Δ lag at 2.5 µM compound (row marked #: measured at 2.5, 1.25 and 0.6 µM) (ratio of lag time to control) | Substance
1 | 3 | > 5 | > 5 |  |  |  | PPI-969: TFA • N-ethyl-(Gaffvl)-NH2 (peptide)
2 |  |  |  | 2 | > 3 | 2 | PPI-1013: TFA • H-(Glvffl)-NH2 (peptide)
